Assay results from patent US20100081624.

Experiments:
[1] = test system: mutLxVPc1 peptide (LxVP motif from NFATc1 with the Leucine, Valine and Proline residues replaced by Alanine)
[2] = test system: T1, LxVPc1 peptide (synthetic peptide with the LxVP sequence of NFATc1)
T1 sequence: DQYLAVPQHPYQWAK

“Calcineurin of the Biomol Green Calcineurin assay kit” was tested, and the “phosphatase activity of CN on the RII phosphopeptide substrate” value [1] was “(but not its mutant version)” and the “phosphatase activity of CN on the RII phosphopeptide substrate” value [2] was “severely blocked in vitro the phosphatase activity of CN on its physiological substrate”.
